Results from patent publication US20040172681.

System: FasA from Brevibacterium ammoniagenes (multifunctional fatty acid synthase)
Sequence (chain, as listed by the source): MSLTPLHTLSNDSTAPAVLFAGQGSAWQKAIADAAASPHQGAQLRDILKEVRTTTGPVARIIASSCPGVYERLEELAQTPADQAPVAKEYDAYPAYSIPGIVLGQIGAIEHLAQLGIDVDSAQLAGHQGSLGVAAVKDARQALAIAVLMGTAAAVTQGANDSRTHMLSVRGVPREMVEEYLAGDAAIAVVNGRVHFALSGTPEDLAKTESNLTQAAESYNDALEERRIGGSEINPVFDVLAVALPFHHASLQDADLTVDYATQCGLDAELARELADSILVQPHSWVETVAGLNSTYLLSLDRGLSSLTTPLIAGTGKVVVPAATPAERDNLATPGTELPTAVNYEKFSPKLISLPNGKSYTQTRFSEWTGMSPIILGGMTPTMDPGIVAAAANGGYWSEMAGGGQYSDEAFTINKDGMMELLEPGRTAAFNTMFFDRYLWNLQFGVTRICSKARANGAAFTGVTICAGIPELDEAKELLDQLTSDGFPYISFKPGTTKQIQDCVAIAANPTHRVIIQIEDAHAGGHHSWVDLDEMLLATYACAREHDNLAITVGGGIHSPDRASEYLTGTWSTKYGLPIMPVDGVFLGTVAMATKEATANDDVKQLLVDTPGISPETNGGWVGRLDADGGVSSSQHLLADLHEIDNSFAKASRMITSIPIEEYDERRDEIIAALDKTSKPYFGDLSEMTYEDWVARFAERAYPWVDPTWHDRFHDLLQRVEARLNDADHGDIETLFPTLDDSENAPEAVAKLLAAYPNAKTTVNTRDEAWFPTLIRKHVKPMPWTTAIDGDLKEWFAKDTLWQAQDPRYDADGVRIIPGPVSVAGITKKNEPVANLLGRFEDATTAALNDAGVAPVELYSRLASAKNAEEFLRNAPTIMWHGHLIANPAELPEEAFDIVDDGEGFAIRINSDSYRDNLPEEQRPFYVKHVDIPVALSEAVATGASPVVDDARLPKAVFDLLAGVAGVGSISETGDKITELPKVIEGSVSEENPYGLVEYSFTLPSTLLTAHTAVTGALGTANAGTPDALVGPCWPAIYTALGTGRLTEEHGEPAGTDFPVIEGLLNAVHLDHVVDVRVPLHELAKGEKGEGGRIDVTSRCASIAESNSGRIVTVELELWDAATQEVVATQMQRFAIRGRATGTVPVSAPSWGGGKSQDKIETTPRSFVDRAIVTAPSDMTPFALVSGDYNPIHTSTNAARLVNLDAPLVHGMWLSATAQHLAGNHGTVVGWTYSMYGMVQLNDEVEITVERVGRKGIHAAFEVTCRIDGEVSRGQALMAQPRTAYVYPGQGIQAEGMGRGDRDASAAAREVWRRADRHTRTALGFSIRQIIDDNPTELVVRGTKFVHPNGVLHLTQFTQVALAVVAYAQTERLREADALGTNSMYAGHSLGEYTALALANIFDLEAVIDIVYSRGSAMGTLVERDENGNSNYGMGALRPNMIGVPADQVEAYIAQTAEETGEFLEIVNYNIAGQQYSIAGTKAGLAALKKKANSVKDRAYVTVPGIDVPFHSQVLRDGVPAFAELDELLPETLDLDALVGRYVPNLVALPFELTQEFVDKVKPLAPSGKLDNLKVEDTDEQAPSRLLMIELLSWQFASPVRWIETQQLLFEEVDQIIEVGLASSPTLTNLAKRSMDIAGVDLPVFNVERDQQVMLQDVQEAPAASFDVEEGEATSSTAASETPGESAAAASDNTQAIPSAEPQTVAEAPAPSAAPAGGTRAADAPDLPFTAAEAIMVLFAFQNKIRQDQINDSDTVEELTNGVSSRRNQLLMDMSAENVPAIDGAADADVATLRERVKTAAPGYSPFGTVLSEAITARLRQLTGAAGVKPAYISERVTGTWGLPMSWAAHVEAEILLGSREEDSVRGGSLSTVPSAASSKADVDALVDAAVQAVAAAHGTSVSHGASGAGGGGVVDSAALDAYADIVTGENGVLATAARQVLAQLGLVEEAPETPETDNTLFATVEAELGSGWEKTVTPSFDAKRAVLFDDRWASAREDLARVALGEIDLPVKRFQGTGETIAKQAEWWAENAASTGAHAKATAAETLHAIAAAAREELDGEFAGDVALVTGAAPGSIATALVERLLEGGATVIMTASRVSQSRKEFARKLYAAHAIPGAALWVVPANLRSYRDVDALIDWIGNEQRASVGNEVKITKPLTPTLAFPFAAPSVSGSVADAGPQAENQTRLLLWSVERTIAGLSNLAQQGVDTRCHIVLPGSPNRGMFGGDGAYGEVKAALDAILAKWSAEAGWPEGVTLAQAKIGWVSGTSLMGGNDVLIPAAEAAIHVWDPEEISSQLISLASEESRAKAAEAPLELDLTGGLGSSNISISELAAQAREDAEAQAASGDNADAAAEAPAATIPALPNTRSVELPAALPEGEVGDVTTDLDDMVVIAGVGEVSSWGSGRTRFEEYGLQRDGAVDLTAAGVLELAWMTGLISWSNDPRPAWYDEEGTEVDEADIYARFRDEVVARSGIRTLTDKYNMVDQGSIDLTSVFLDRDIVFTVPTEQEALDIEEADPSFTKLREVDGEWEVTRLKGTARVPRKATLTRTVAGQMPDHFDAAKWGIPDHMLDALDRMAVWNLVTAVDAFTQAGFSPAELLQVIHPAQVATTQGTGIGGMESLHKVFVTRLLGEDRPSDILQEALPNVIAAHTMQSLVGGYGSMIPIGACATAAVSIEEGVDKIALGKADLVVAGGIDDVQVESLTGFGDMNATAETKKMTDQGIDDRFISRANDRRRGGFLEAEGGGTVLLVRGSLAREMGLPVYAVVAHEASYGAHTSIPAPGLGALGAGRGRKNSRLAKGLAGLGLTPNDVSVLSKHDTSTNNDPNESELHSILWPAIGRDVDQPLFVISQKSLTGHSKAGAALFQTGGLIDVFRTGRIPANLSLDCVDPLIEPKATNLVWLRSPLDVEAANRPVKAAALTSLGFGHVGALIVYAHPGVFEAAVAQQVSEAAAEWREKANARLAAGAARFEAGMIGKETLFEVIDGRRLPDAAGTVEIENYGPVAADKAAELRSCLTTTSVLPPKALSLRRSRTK

B1: phosphopantetheine:protein transferase (PPT1) enzyme from B. ammoniagenes, expressed in E. coli as a lacZ fusion protein (enzyme, part only; not given: N-terminal lacZ fusion residues)
chain, part: MLDNREAMTVGVDLVHIPGFAEQLSRPGSTFEQVFSPLERRHAQTRRDAAADATNSSLAGSRTEHLAGRWAAKEAFIKAWSQAIYGKPPVIEPDLVNFAEIEVLPDRWGRVALQLKGEVAAKLQESIDVELALSISHDGDYATAQCLLRYQR
  fasA activity (radiochemical assay at 37 C for 15 minutes on partially purified E. coli extracts): only when the fasA cosmid (FA) and the pSU19/ppt1 (P) construct were both present was there any measurable fasA activity
